Experimental data published in patent US20110165265A1, “TRAIL VARIANTS FOR TREATING CANCER” (FUNDACIÓ GENÒMICA (CRG), priority 2007, published 2011).
Entries after “also recorded” stand apart in the source; their conditions may differ.

What was measured:
EM-2 cells = experiment: Cytotoxicity in EM-2 cells; type: cell-based
Excerpt: Similar results were obtained by using EM-2 chronic myeloid leukemia cells expressing only the DR4 receptor and lacking the DR5 receptor and by using the ovarian cancer cell line A2780, which expresses DR5 but lacks DR4 on its surface and is relatively insensitive toward TRAIL-induced cell death.

[1] = system: human umbilical vein endothelial cells (HUVEC); experiment: Viability of HUVEC; type: cell-based; conditions: for cell viability: 50-500 ng/ml, 24 h, MTT
Procedure: Human dermal fibroblasts were grown in low glucose DMEM (Sigma) supplemented with 10% fetal calf serum, 50 U/ml penicillin and […] streptomycin; human umbilical vein endothelial cells (HUVEC, PromoCell) were cultured in Endothelial Cell Growth Medium with SupplementMix (PromoCell). Fibroblasts and HUVEC cells were seeded at 1.3×10^5 cells/ml 24 h before treatment with increasing concentrations of TRAIL and DR5-selective variants, D269H and D269HE195R (50-500 ng/ml) for 24 h and cell viability was measured using MTT assay, wherein 200 μg/ml MTT (3-(4,5-dimethylthiazo1-2-yl)-2,5-diphenyl-tetrazolium bromide) was added to control and treated cells and incubated for 3 h at 37° C. The reaction was stopped and the purple formazan precipitate formed was dissolved using dimethyl sulfoxide (DMSO) and the colour intensity was measured at 550 nm on a Wallac multilabel counter. The control value corresponding to untreated cells was taken as 100% and the viability of treated samples was expressed as a percentage of the control. (FIG. 15).

HeLa cells = experiment: Cell survival / sensitivity of HeLa; type: cell-based
Procedure: (B) Effect of increasing of Bortezomib on cell viability. Hela cells appear to tolerate higher concentration of Bortezomib compared to Caski and SIHA cells (C) Combination therapy with 10 nM Bortezomib incubated for 24 h lead to further decreases in cell viability in cells treated with both TRAIL and two of the DR5 mutants (D) Radiation therapy in combination with TRAIL or the DR5 mutants further decrease cell viability in HELA cells. The DR5 mutant show decrease cell viability at lower concentration of ligand compared to TRAIL.

Colo205 tumors = Colo205 tumors in athymic nude mice; type: in vivo; conditions: 1 and 5 mg/kg IP
DR5 [2] = target: T1, DR5 (Homo sapiens, UniProt O14763); conditions: surface plasmon resonance; read-out: binding affinity Kd for DR5; cited from earlier work
T1 construct: Effect of soluble recombinant DR5-Ig (sDR5) on apoptosis induction

[3] = acknowledged value; cited from earlier work
DcR1 = target: T2, DcR1 (Homo sapiens, UniProt O14798); experiment: SPR receptor binding assay, immobilized DcR1-Ig; conditions: 0.1-250 nM ligand
T2 construct: soluble, recombinant DcR1-Ig (sDcR1) and DcR2-Ig (sDcR2); purchased R&D Systems
T2 sequence (O14798 26-236 limits assumed): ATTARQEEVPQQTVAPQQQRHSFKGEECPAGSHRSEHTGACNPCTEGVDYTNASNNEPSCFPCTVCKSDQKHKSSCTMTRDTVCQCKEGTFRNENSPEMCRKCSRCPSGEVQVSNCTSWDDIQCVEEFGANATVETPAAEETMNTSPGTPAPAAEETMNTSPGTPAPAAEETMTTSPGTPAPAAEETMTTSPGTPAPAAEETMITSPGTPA
Procedure: The response data (in response units) as a function of TRAIL concentration were fitted using a four parameter equation to give an apparent pre-steady state affinity constant.
Binding experiments were performed at 37° C. using a surface plasmon resonance-based biosensor (Biacore 3000, Biacore AB, Uppsala, Sweden) as previously described^10. In short, DcR1-Ig and DcR2-Ig receptor chimeras (R&D Systems) were captured at a 35 μl/min flow rate using a protein A (Sigma) modified CM5 sensor chip (Biacore). Receptor chimeras were captured at a level of ˜500-800 response units (RU). […] Binding of ligands to the receptors was monitored in real-time. Between injections the protein A sensor surface was regenerated using a 30s pulse of 0.1 M glycine 0.5 M NaCl pH 3. Due to the very slow dissociation of the TRAIL-receptor complex, only pre-steady state binding data could be obtained. In order to obtain data that represent proper high-affinity complex formation, the response at each concentration was recorded 30 sec after the end of the injection. The response data (in response units) as a function of TRAIL concentration were fitted using a four parameter equation to give an apparent pre-steady state affinity constant.
Affinity of the ligands was assessed by measuring receptor binding in a concentration range of 0.1-250 nM.

A2780 cells [4] = experiment: Sensitivity of ovarian carcinoma cell line A2780 (Example 4); type: cell-based, human
Excerpt: The ovarian carcinoma cell line A2780 expresses very low levels of DR4, and high levels of the other three membrane-bound TRAIL receptors. Sensitivity of these cells to wild type TRAIL and the DR5-specific variant was compared initially as a single agent. The sensitivity pattern is illustrated in the Table 6, with + indicating minimally sensitive, ++ moderately sensitive and +++ very sensitive.

VACO-235 and VACO330 = experiment: Sensitivity of colon adenoma cell lines; type: cell-based, human; conditions: 96 hours
Procedure: The colon adenoma cell lines VACO-235 and VACO330 were treated with TRAIL or D269H/E195R for 96 hours. […] Sensitivity could be further enhanced using TRAIL or D269H/E195R in combination with the cdk inhibitor roscovitine.

Colo205 cells = experiment: Annexin V apoptosis assay in Colo205; type: cell-based, human; conditions: Colo205, 3 h
Procedure: Colo205 cells express all four TRAIL receptors, and are sensitive to TRAIL-induced apoptosis, which is mediated predominantly via DRS in these cells^10. […] Induction of cell death was measured by Annexin V assay, wherein externalization of phosphatidyl serine (PS) on the plasma membrane of apoptotic cells was detected using Annexin V-FITC (IQ Corporation, Groningen, The Netherlands). Briefly, cells were trypsinized and were then collected by centrifugation at 400 g, washed in ice-cold calcium buffer (10 mM HEPES/NaOH, pH 7.4, 140 mM NaCl, 2.5 mM CaCl2) and incubated with Annexin V-FITC for 15 min in the dark prior to acquisition on a FACSCalibur flow cytometer (Becton Dickinson).

A2780 cells [5] = experiment: MTT cytotoxicity in A2780 (Example 6); type: cell-based; conditions: A2780 (FIG. 8E)
BJAB cells = experiment: Cytotoxicity in BJAB cells; type: cell-based
DR5 [6] = target: T1, DR5; experiment: SPR binding to immobilized DR5-Ig

B1: wtTRAIL: wild-type soluble recombinant human TRAIL, amino acids 114-281 (SEQ ID NO: 3) (protein, listed as Homo sapiens)
chain: MVRRGRVAAHTGTRGRSNTSSNSKNKAGRKNSWSSRSGHSSNHRNGVHKGYYYSTYRKNTKNDKMVYYKYTSYDMKSARNSCWSKDAYGYSYGGKNDRVSVTNHDMDHASGAVG
modifications: TRAIL 114-281
With B1 the cell death (EM-2 cells; EM-2, 50 ng/ml) was greater than 80%, the “cytotoxic effects on noncancerous cells” value ([1]; 100 ng/ml) was “no cytotoxic effects were observed” and the cell viability [1] was “Neither wtTRAIL nor the DR5-selective variants had any effect; also recorded: did not result in a decrease in cell viability”. For the same molecule, the “cell viability, single agent” value (HeLa cells) was “comparable”, the “effect of radiotherapy and Bortezomib on induced apoptosis” value (HeLa cells) was “enhanced apoptosis” and the “anti-tumor effect, single therapy” value (Colo205 tumors) was “neither of the two concentrations of wtTRAIL give an anti-humor effect; also recorded: do not give an anti-tumor effect”. The Kd (DR5 [2]) was 7.2 nM and the half life [3] was “approximately 30 minutes”.

B2: D269HE195R: rhTRAIL (114-281) carrying mutations D269H and E195R; DR5-selective TRAIL variant (protein)
chain: MVRERGPQRVAAHITGTRGRSNTLSSPNSKNEKALGRKINSWESSRSGHSFLSNLHLRNGELVIHEKGFYYIYSQTYFRFQERIKENTKNDKQMVQYIYKYTSYPDPILLMKSARNSCWSKDAEYGLYSIYQGGIFELKENDRIFVSVTNEHLIDMHHEASFFGAFLVG
In the case of B2, the “binding towards DcR1, reduction compared to wtTRAIL” value (DcR1) is reported as “approximately 20 fold”, the “efficacy in combination with Cisplatin” value (A2780 cells [4]) is reported as “higher efficacy than wtTRAIL” and the “sensitivity compared to wild type TRAIL, single agent” value (A2780 cells [4]) is reported as “increased sensitivity”. The cell death induction (EM-2 cells; EM-2 cells) was “hardly any apoptosis”, the “sensitivity of adenoma cell lines” value (VACO-235 and VACO330) was “more sensitive to D269H/E195R” and the cell viability [1] was “did not result in a decrease in cell viability”. For the same molecule, the “cell viability, single agent” value (HeLa cells) was “comparable”, the “effect of radiotherapy and Bortezomib on induced apoptosis” value (HeLa cells) was “enhanced apoptosis” and the “increase in apoptosis / cytotoxic potential compared to wtTRAIL (based on IC50)” value (Colo205 cells) was 2.7-4.2 fold. For the same molecule, the “increase in apoptosis / cytotoxic potential compared to wtTRAIL (based on IC50)” value (Colo205 cells; listed as D269H/E195R) was 3.3-4.2 fold, the “cytotoxic activity compared with wild-type TRAIL” value (A2780 cells [5]) was “significantly increased” and the cell death induction (BJAB cells; BJABDR5 DEF cells) was “unable to induce significant cell death”. The cytotoxic potential (BJAB cells; BJABDR5 DEF+DR5 cells) was “restored”, the cell death induction (BJAB cells; BJABwt cells) was “able to induce cell death” and the “increase in association rate constant (kon) for binding to DR5 compared to wtTRAIL” value (DR5 [6]) was “less than 5 fold”. For the same molecule, the “affinity for DR5-Ig compared to wtTRAIL” value (DR5 [6]; pre-steady state SPR) was “increased several fold”.
